The target in the experiment is T1, C-RANKL protein (RANKL fragment with N-terminal cysteine-containing amino acid linker and hexa-histidine tag, … (mouse, UniProt O35235 137-316)).
T1 construct: Coated on ELISA plates at 10 ug/ml
T1 sequence: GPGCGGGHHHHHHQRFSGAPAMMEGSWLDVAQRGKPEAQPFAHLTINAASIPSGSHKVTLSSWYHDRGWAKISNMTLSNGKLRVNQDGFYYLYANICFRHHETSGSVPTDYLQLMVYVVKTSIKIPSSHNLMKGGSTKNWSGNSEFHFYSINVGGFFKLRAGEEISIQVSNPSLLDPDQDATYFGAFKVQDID
The experiment can be described thus: ELISA, plates coated with 10 ug/ml C-RANKL, serial dilutions of RANK-Fc, anti-Fc-HRP detection. For orientation: ELISA stands for enzyme-linked immunosorbent assay.

These results are taken from patent publication US7128911.

What is called EC50 is the concentration giving half of the maximal effect. Low readings indicate a more potent agent, high ones a less potent agent.

B1: purified RANK-Fc fusion protein (Fc fusion)
chain: VTPPCTQERHYEHLGRCCSRCEPGKYLSSKCTPTSDSVCLPCGPDEYLDTWNEEDKCLLHKVCDAGKALVAVDPGNHTAPRRCACTAGYHWNSDCECCRRNTECAPGFGAQHPLQLNKDTVCTPCLLGFFSDVFSSTDKCKPWTNCTLLGKLEAHQGTTESDVVCSSSMTLRRPPKEAQAYLPS
Turning to B1, the EC50 fell in the range of 1 to 3 nM.
